Here are results for 1 substance from article PMC11112126.

In test [1] the target is SH3P2 (Arabidopsis thaliana) (UniProt Q8VWF1). The test can be described thus: mass photometry; SH3P2 at 75 nM; 25 mM HEPES pH 7.5, 200 mM NaCl, 25 mM KH2PO4 pH 8.0; monomer to dimer.
The target is the same in test [2]. In words: mass photometry; SH3P2 at 100 nM; 25 mM HEPES pH 7.5, 200 mM NaCl, 25 mM KH2PO4 pH 8.0; monomer to dimer.

“SH3P2 (from UniProt Q8VWF1 1-368) (natural protein)”: the percent of dimers at 75 nM in test [1] stood at 60%. Besides, in test [2], the percent of dimers at 100 nM is 85% and the stoichiometry N was determined as 2.

For orientation: stoichiometry N means the number of molecules, sites or subunits per partner or assembly.
